In assay [1] the target is T1, Yersinia entomophaga YenB (TcB component of the Yen-Tc toxin complex) (Yersinia entomophaga, UniProt B6A880 1-1487).
T1 sequence: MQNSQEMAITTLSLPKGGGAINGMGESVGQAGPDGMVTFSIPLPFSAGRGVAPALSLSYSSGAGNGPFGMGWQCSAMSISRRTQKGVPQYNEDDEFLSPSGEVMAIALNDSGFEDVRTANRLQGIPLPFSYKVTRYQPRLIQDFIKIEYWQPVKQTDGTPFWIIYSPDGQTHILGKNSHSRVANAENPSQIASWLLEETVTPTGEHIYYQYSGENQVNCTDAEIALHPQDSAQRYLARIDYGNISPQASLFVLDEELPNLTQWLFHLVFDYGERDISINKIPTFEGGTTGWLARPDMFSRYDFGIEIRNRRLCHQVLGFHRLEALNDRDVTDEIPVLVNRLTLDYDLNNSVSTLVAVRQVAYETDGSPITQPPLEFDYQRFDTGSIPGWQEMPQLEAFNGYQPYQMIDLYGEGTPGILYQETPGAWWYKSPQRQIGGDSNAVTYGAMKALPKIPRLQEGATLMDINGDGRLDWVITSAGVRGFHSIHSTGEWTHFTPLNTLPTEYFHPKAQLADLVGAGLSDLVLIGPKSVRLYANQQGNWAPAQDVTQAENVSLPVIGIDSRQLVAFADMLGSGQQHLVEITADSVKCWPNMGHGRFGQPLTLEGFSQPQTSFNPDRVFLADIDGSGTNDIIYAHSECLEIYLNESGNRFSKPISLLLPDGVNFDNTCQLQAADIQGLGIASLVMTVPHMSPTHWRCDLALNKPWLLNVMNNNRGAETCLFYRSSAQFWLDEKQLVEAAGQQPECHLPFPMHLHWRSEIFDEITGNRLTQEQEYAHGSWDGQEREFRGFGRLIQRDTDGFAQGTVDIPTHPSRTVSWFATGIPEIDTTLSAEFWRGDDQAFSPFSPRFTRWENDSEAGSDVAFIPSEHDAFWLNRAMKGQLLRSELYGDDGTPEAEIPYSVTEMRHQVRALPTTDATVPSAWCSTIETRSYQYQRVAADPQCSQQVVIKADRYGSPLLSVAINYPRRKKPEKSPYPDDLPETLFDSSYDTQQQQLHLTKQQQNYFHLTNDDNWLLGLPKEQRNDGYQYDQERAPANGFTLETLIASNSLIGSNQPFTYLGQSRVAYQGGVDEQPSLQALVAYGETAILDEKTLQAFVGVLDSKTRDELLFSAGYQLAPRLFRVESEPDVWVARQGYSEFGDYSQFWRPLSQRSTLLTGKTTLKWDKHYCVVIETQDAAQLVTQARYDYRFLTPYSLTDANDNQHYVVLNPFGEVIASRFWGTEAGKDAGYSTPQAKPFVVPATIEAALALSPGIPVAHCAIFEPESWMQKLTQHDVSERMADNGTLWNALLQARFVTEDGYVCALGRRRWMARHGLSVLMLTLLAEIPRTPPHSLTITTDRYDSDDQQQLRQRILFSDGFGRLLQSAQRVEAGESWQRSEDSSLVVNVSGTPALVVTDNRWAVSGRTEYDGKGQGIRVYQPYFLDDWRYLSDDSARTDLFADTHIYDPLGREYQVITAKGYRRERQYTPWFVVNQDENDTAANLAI
Description: co-expression in E. coli, size-exclusion chromatography. Background: Size exclusion chromatography separates by hydrodynamic size, large species first.

Assay [2] concerns the target T2, YenB/YenC2-N complex (hollow shell) (Yersinia entomophaga, UniProt B6A880 1-1487; B6A882 1-690).
T2 construct: Heterodimer of YenB and YenC2-N. It is used here as the partner that encapsulates YenC2-C or GFP; also called TcB:TcC shell; BC shell
Description: SAXS and crystal structure; encapsulation in the shell.

Assay [3] addresses T1, Yersinia entomophaga YenB (TcB …). Nature of the assay: purification after precipitation of the C-terminal domain at pH 4.5-5.0.
Assay [4] shares this target. Description: X-ray crystal structure (figure legend).
Assay [5] shares this target. Nature of the assay: co-expression, co-purification by Ni-affinity and SEC.

B1: Yersinia entomophaga YenC1 (TcC component) (other)
chain: MNQFDSALHQGTPGVSVLDNRGHVIRELRYYRHPDTPQEIAERIAFHQYDSYGFISQSIDPRLAERRKQDSSVKPNLSYFTALSGEVLRTDGVDAGTIFSLNDIAARPAISISATGVSHTWQYEGENRPGRVLSRSEREKDREERIIERFYWAGSDASQKANNLAGQCLRHYNSAGLNQTLSIALTGTPISACFQPLLESAEPEWQGTNESAWLELLTPEIFTTYNRADANGETLVQTDAMGNIQRLAYDVAGFLKSSWLSLKGGQEQIIVKSLTYSAAGQKLQEEHGNGVLTTYSYEAETQRLIGIRTERPAGHLSGARVFQDLRYTYDPVGNVLRITNDAEATRFWRNQKVVPENTYIYDTLYQLVSANGREMANIPQQSSQLPTLSPIDNNAYTNYIRNYHYDSAGNLMQIRHTSAAANNSYTTNITVSKYSNRAVLSSLTDDVDKVEAFFDAAGRQNQLLPGQTLSWNARGELAKVTPVARDGQESDSETYRYDANSQRVSKMAIQQSNNNTQTRRVLYLAGLERRTIHQGNTLFETLLVVKIGEAGRAQVQAMHWELGQPTEVANDELRYSYDNLIGSSGLEVDGTGQLISQEEYYPYGGTAVWMARSQREASDKAYGYSGKERDATGLYYYGFRYYQPWAGRWLSADPAGTIDGLNLFRMVRNNPIVLHDPDGLAPGFFERISSFRKKDTLTISSLKGTGPFYTRSESEIDIDFLFSRQDRDKDFPPQNHKELSAEDRREVLEVSSGENITSANKSSKWYAGTHWETKPLKNNTDLVVLHNGVQGAAGININLNDIKPGRSVLVTAGTLTGCTMITGVKGNNFYALHAGTGTPSENWVTGEHGVTDNFRMLNKLIPDAGIDLNPEAVNDSLLTILDYFDNGTIAYNGKKGSEIHRDADNILNYRTTGYENTVGVSFSLLTKDKNGEVSASTLLELGELKPHKKHRTRGQFGMTELKYEARKNTVVKLR
notes: Expressed as the whole protein; When co-expressed with YenB it auto-proteolyses into two fragments, and both co-elute with YenB
B1: the binding result in assay [1] is listed as “binds”.

B2: C-terminal region of YenC2 (YenC2-C) (other)
chain: APLDWLDLDTTNASRDIVKAIYQLNQIDGPHRGVRDTYQRMTESTGMILQETLNNEAVLKGIKQKDKEKKSRGMKFTNSKLKTYAAHAGVLNTLQPDPVYKDGFLNLPGSLGNKNTFPGVELIEDKVKPSLSQYHPDKLGKSQRWKPESSLGYYRVADTEAFITGIRSQYKSSGTDLHAVVEGRIRDHLLANNNVLPKMAGIAGLHAEVQALNYIISNPDIEGGNAERLNGSYIFTQRLVGDVNQDFPACYNCSGIISGLENVMTGRVNNDVRLKRRKSF
notes: also called YenC-C; TcC-C
In the case of B2, in assay [2], the binding result is “binds”.

B3: N-terminal portion of YenC1 (other)
chain: MNQFDSALHQGTPGVSVLDNRGHVIRELRYYRHPDTPQEIAERIAFHQYDSYGFISQSIDPRLAERRKQDSSVKPNLSYFTALSGEVLRTDGVDAGTIFSLNDIAARPAISISATGVSHTWQYEGENRPGRVLSRSEREKDREERIIERFYWAGSDASQKANNLAGQCLRHYNSAGLNQTLSIALTGTPISACFQPLLESAEPEWQGTNESAWLELLTPEIFTTYNRADANGETLVQTDAMGNIQRLAYDVAGFLKSSWLSLKGGQEQIIVKSLTYSAAGQKLQEEHGNGVLTTYSYEAETQRLIGIRTERPAGHLSGARVFQDLRYTYDPVGNVLRITNDAEATRFWRNQKVVPENTYIYDTLYQLVSANGREMANIPQQSSQLPTLSPIDNNAYTNYIRNYHYDSAGNLMQIRHTSAAANNSYTTNITVSKYSNRAVLSSLTDDVDKVEAFFDAAGRQNQLLPGQTLSWNARGELAKVTPVARDGQESDSETYRYDANSQRVSKMAIQQSNNNTQTRRVLYLAGLERRTIHQGNTLFETLLVVKIGEAGRAQVQAMHWELGQPTEVANDELRYSYDNLIGSSGLEVDGTGQLISQEEYYPYGGTAVWMARSQREASDKAYGYSGKERDATGLYYYGFRYYQPWAGRWLSADPAGTIDGLNLFRMVRNNPIVLHDPDGL
notes: Fragment left in complex with YenB after the C-terminal domain precipitated at low pH; also called YenC1 - N term; N-terminal portions of YenC
Consider B3, for which, in assay [3], the binding result was “binds”.

B4: conserved N-terminal 76 kDa portion of YenC2 (YenC2-N) (other)
chain: MDIQLFSKTPSVTVFDNRGLSVRDIAYRRHPDTPKVTEECITYHQFDFRGFLAQSLDPRLNHKEVTNFSYLTDLNGNIIYTQSVDAGNTLVLNDTEGRSVIAMTNISRGENGKDDLSLAVTRTFQYENAPLPGRPLSVTEQVNGENARITEHFVYAGNTPQEKNLNLAGQCVSYYDAAGLIQTDSVSLTGKPLSVSRKLLKNLDDTNILADWQGNDTSAWNSLLATEIYTTVTRTDAAGAVLTTIDAVGNQQRVAFDIAGQLSASWLTLKGGQEQVIIKVLTYSAAGQKLREEGGNGVVTTYTYEAETQRLIGIKTERPNGHAAGAKVLQDLRYEYDPVGNVLSITNDAEETRFWRNQKVVPENAYRYDSLYQLVSASGREVAGAGQQGSDLPSPLVPLPSDSSVYTNYTRTYTYDSAGNLMRIRHSAPATNNNYTLNITVSERSNRGVMSSLTENPADVDALFTASGSQKCLQQGQSLIWTPRGELRTVLLVARGETADDSESYRYDGSSQRILKISSQQTNHSARVQRALYLPGLEWRTMTGGVAEAENLQVICIGEAGRAQVRVLHWESGKPDGIINDQIRWSYDNLTCSSGLEVDGDGLVISMEEYYPYGGTAVWAARSHIETAYKTVRYSGKERDATGLYYYGFRYYQPWAGRWLSADPAGTVDGLNLYRMVRNNPLRLTDPDGM
notes: Made by self-cleavage of YenC2 after M690 when co-expressed with YenB; The C-terminal fragment was removed at pH 4.5; also called YenC2NTR; YenC2 - N term
Regarding B4, the binding result in assay [4] is given as “binds”.

B5: Yersinia entomophaga YenC2 (TcC component) (other)
chain: MDIQLFSKTPSVTVFDNRGLSVRDIAYRRHPDTPKVTEECITYHQFDFRGFLAQSLDPRLNHKEVTNFSYLTDLNGNIIYTQSVDAGNTLVLNDTEGRSVIAMTNISRGENGKDDLSLAVTRTFQYENAPLPGRPLSVTEQVNGENARITEHFVYAGNTPQEKNLNLAGQCVSYYDAAGLIQTDSVSLTGKPLSVSRKLLKNLDDTNILADWQGNDTSAWNSLLATEIYTTVTRTDAAGAVLTTIDAVGNQQRVAFDIAGQLSASWLTLKGGQEQVIIKVLTYSAAGQKLREEGGNGVVTTYTYEAETQRLIGIKTERPNGHAAGAKVLQDLRYEYDPVGNVLSITNDAEETRFWRNQKVVPENAYRYDSLYQLVSASGREVAGAGQQGSDLPSPLVPLPSDSSVYTNYTRTYTYDSAGNLMRIRHSAPATNNNYTLNITVSERSNRGVMSSLTENPADVDALFTASGSQKCLQQGQSLIWTPRGELRTVLLVARGETADDSESYRYDGSSQRILKISSQQTNHSARVQRALYLPGLEWRTMTGGVAEAENLQVICIGEAGRAQVRVLHWESGKPDGIINDQIRWSYDNLTCSSGLEVDGDGLVISMEEYYPYGGTAVWAARSHIETAYKTVRYSGKERDATGLYYYGFRYYQPWAGRWLSADPAGTVDGLNLYRMVRNNPLRLTDPDGMAPLDWLDLDTTNASRDIVKAIYQLNQIDGPHRGVRDTYQRMTESTGMILQETLNNEAVLKGIKQKDKEKKSRGMKFTNSKLKTYAAHAGVLNTLQPDPVYKDGFLNLPGSLGNKNTFPGVELIEDKVKPSLSQYHPDKLGKSQRWKPESSLGYYRVADTEAFITGIRSQYKSSGTDLHAVVEGRIRDHLLANNNVLPKMAGIAGLHAEVQALNYIISNPDIEGGNAERLNGSYIFTQRLVGDVNQDFPACYNCSGIISGLENVMTGRVNNDVRLKRRKSF
notes: Expressed as the whole protein; When co-expressed with YenB it self-cleaves after M690 into YenC2-N and YenC2-C, and both fragments stay in the complex
Consider B5, for which the binding result in assay [5] is on record as “binds”.
